Tested on: MS2 coat protein
Experiment: apparent KD of MS2 coat protein; designed switch direction (-1 OFF switch, 1 ON switch): -1; higher = weaker reporter binding
Summary of the method: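 Designed RNA switches were transcribed on Illumina chips by stalled E. coli RNA polymerase and titrated with SNAP-549-labelled MS2 coat protein from 0.7 or 1.5 nM, doubling to 3 µM. Step length ran from 0.8–1.5 h at the lowest concentration to 10–20 min at the highest. The apparent KD is the median over clusters for each design, from curve-fitted normalised cluster fluorescence.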

[1] = Eterna round: R95, input ligand: microRNA oligo, concentration not stated
[2] = input ligand: microRNA oligo, concentration not stated

Sequence	apparent KD of MS2 coat protein (input ligand: FMN 200 uM) [nM]	apparent KD of MS2 coat protein (input ligand: none) [nM]	apparent KD of MS2 coat protein [1] [nM]	apparent KD of MS2 coat protein [2] [nM]
UCUUGUUGUCCUUGAUAAUACAUGAGGAUCACCCAUGUUAUUUUGAUUAUGAUGUGUAAGUUUGUUGCUCGUUUUAU [JR_STOV1_Sub069] (Eterna round: R97, puzzle: Sensor, turn-off variant 1)	27.7	30.9		
ACUAGAUGAGGAUAUGCAUAUUUUCGUGUUCUUCUAGAUUAACAUGAGGAUCACCCAUGUAGAAGGCGUCAUUU [Exclusion 2 - 16] (puzzle: Exclusion 2)			15.7	
CCGAAAAGGAAGGAUAUGCUUGACGAAAGUCAAGCAGAAGGUCCUACAUGAGGAUCACCCAUGUGGUCCUUCGG [Mat - Exclusion 6 - Eli Mod - D36] (Eterna round: R97, puzzle: Exclusion 6)	629	450		
AUGUGACAUGAGGAUCACCCAUGUCAGGAUAUUUCCAAAAUAAAAUAAAACCGCGUGGAAAGAAGGGACGUGGU [EX1 A.8] (Eterna round: R97, puzzle: Exclusion 1)	23.4	21.7		
UUUUUAUAUGAAGGAUAUACUUAACAUGAGGAUCACCCAUGUGGUGUUGUGAGUGAGUGAGUUUAGUAGAAGGUCAAGGAUUUU [JMF's solution 35] (Eterna round: R96, puzzle: Exclusion NG 2)	598	161		456
CCAGGCUGUGUGAGGAUAUGCUGGUCCUUGGAUCAGCAGAAGGCACAUGAGGAUCACCCAUGUGAAAAGCUUGG [Mat - Exclusion 4 - JL Mod - D91] (puzzle: Brourd's mod of Exclusion 4)			16.2	
ACAAAGGUAGGAUAUCGGACUAUGGACAUGAGGAUCACCCAUGUGCGUCCAAUGCCCAACCGAGAAGGACCAACAG [Isindiedbe] (puzzle: Exclusion 5)			43.7	
ACUAGCUUUUUGCAUUUUAGGUUUGUUGCUUCGUAUGUAACAUGAGGAUCACCCAUGUAUUACUGAUGUCGUCGUUU [JR_SV3TOV2_Sub090] (Eterna round: R96, puzzle: Sensor v3, turn-off variant 2)	18.5	20.3		15.5
CGAUCGGUAGGAUAUACAUGAACCUUGGUUGUGAGGCCUAAACAUGAGGAUCACCCAUGUAGAAGGACCUCGUA [EX2 C.10] (Eterna round: R97, puzzle: Exclusion 2)	13.9	13.8		
CGGAUGUAAGGAUAUCGUGCAAGUUUCAAAAGAGGCUUGUGCGAGAAGGUACAUGAGGAUCACCCAUGUAGGUU [Omei Ex4 B6] (Eterna round: R97, puzzle: Exclusion 4)	157	75.8		
ACAAGAUCGGAAGGAUAUUGUACAUGAGGAUCACCCAUGUAAUAAAUGAGGAUCACGGAUGUAGACAAGAAGGUCCGGAUAAGA [Ostracism 4 - Jieux - Exclusion NG 2] (Eterna round: R96, puzzle: Exclusion NG 2)	45.6	36.2		30.8
CUCCGGCGUGUAGGAUAUGGAUCCGAUUAGGAUCCAGAAGGACAUGAGGAUCACCCAUGUACAUGUAAACGGUCGUCACCGGGC [salish99_ExNG1_r04_207] (Eterna round: R96, puzzle: Exclusion NG 1)	134	61.3		26.2
ACAUGUUAUGUAGGAUAUUAUACACAUGAGGAUCACCCAUGUAACCGGAGGCUUUACUAUGAGUAUGAGAAGGGUAUGAACAUG [Ex NG2 #65] (Eterna round: R96, puzzle: Exclusion NG 2)				64.2
AACCAGCGAGGAUAUGCUUGCGCUUGUUCUGGUUAUAAUCGACUUGAGGAUCACCCAAGUAGAAGGUGCUGGCG [EX2 #56] (Eterna round: R97, puzzle: Exclusion 2)	28.7	22.5		

Reference: the supplement of paper PMC9170038
